Reference: the DeepSol protein solubility set

assay: soluble on expression in E. coli; label from the status in PepcDB or PDB records

Sequence	soluble on expression in E. coli
MPPKKTQKSGLLQFFAKQQQEKYQNSSKNEETTEHDDSCQILFEKQVAGPSKVSKPIGFPTTPKNTTKWAETLQKSSEKAGRDWLNPFPIRVSSAKKEIEKNSKTELLAKGFDDIHGNGIFYPINEPIRNFELNLLKCLSSSNCCVALPSSSPSTPGRICAMTVFNFLKWFPRCRVLLVSSSDSWISSLRQLGLESQTTKLTTVTQFKNLKTEAGKILVCTTPQCALKVVESTGGREFLEEIRLVLMELKPNECCSKYKPILNALTVKETFFRCSVLTTSTSNASRRTASITKRQQMITNLQLSDWIEQTEADFAFRSANIPAGVEVKTWKSEDNSAKHAEITGKFEKYCEKTIDDLARQCIVSSKSVKKLIWTCWKTLKQQSKLPEIEKKKLEISEFLTCTYKLLIIDGVVAARNFVKKHSEIPHIKEHAEKILEPTIFGGFSEFPAKFQQLSDSIEAFLKMDNHVLGVILCRDSDQAIEIQNYLELQLTTRCTCVRIIEEGTHPGRNLWNIQRISTVFIDRKSPKIVILPVKIRDFIGFSDGLPLSELTFIASISRDSLFNFRRFGGAHLLIINDPLEKLRNEDGRLLVDDGKFVQNNSKNAPKMGAVERYDFKFEPSRLRIDATHLPIQFFYPRDVGVTFDETAGISQLGKTHIEMTSKEHTELFKRLQNPDFSRFQRRKRVFWVLEDLEHPNENKSIPIEEMDETQLCWNQDIQYLGEIKSSKLSERLTRYMKDEPVEWIINEKRRFEYINEITSTDRLVHLDRLLRNLDAHFQVLSSC	not soluble
MGSDKIHHHHHHMRILEINTEKGWRGGENQTLLALIGFRKLGHEAELLCFENSALHVQAAAAGFTCHPLTSSTKSIGFLMEYGKNYSILHTQTSKQLTYCILTKPFHNSKVILSRRVDFVPKGFFTLLKYNACDGIICVSGAIEKILKQSGIKTRTVVISDCVTEKTLNKTRAQELLQKLTISGKNIIGTTAALVPHKDPVTLVNAVNILRTKRSDFVLLHFGSGPLAATIQQFITDNNLQDYYKLIGFKERVEDYFSIFNYFVMSSQEEGLGSSVLDAFVYKVPVVSTNAGGLNELVTGRGYVTEKKNAQLLAEALHTAMNSPEQNKKNVAAGYTYAVSNLSVEKIHEEHIDFFKTV	not soluble
MTRSGNTRNGKYMGEDKRRYHTITNILQYNLIPDFFTIFAKYCITFKNMTMEKTFAQISELFDQFSKDASLQVEKGNKAAGTRARKASLELEKLLKRFRKESLEASK	not soluble
ITLKVAIYPYVPDPARFQAAVLDQWQRQEPGVKLEFTDWDSYSADPPDDLDVFVLDSIFLSHFVDAGYLLPFGSQDIDQAEDVLPFALQGAKRNGEVYGLPQILCTNLLFYRKGDLKIGQVDNIYELYKKIGTSHSEQIPPPQNKGLLINMAGGTTKASMYLEALIDVTGQYTEYDLLPPLDPLNDKVIRGLRLLINMAGEKPSQYVPEDGDAYVRASWFAQGSGRAFIGYSESMMRMGDYAEQVRFKPISSSAGQDIPLFYSDVVSVNSKTAHPELAKKLANVMASADTVEQALRPQADGQYPQYLLPARHQVYEALMQDYPIYSELAQIVNKPSNRVFRLGPEVRTWLKDAKQVLPEALGLTDVSSLAS	soluble
MGSDKIHHHHHHMFPFERQNKIIHLLDQNSKITVPELSRILDVSISTIRNDLSSLEESGMIKKVHGGAVLLKSEEKFTNFNDRIIRNIEEKEAIAKEAATLVKNNQTIILDASSTALALAKELHGFSRLTVITSGLYTAIELKDNPNISVILTGGIVTTNSFTLEGILGANLIENIHADLCFMSAKGFTMEEGLTDFNIYETELKRLLAKRTNKLIALLDHTKMGVISTASITAAENIDLLITDNKINKALYKKFQDAGLPVKIAE	not soluble
MDVTDKIRPWMKECRLCPRNCGADRMAGQKGFCGTDTEIMVARAALHMWEEPCISGKEGSGAVFFSGCSLGCNFCQNRRISRGQRGKKITQEHLVELFFQLQEQGANNINLVTAGHFLPQVAVALEMAKEQGLHIPVVYNSSGYEKAKTLKMLDGLVDIYLPDFKYMDAVLAKKYSHAQDYPEIAKEALSEMVRQVGEAEFDSRGMMKKGVIVRQLLLPGHVKDAKNVLKYLYETYGDRIYISMMNQYTPMPAMKDDPQLSRKVTDREYERLIDYAISLGLKNGFMQEGETAKESFIPEFDGEGV	not soluble
MSLSIFKRKTKQVNPFEQGWLTDLIDIHCHLLPAVDDGSKSIEETLSLIDLLEEIGVKQHILTPHIMEEYPSNDAIFLRARFEELLAAITPDKASRLRLAAEYMLDVAFLDRLAEPLLTLGDRYILVETSYMAPPIGLMGLLADLRFKGLSPVLAHPERYLYMEEKDYVAIKKQGVMFQLNLFSLFGAYNSSASEKAYALLEAGYYDLIGTDIHHLQPIARLLSEASLPPDLEGKIKSLVENNTRLFSEGHHHHHH	soluble
MGSDKIHHHHHHMTDKMQSLALAPVGNLDSYIRAANAWPMLSADEERALAEKLHYHGDLEAAKTLILSHLRFVVHIARNYAGYGLPQADLIQEGNIGLMKAVRRFNPEVGVRLVSFAVHWIKAEIHEYVLRNWRIVKVATTKAQRKLFFNLRKTKQRLGWFNQDEVEMVARELGVTSKDVREMESRMAAQDMTFDLSSDDDSDSQPMAPVLYLQDKSSNFADGIEDDNWEEQAANRLTDAMQGLDERSQDIIRARWLDEDNKSTLQELADRYGVSAERVRQLEKNAMKKLRAAIEA	not soluble
MGSDKIHHHHHHMSNPAYTAMWEKLNLDIPAHDGLLEVLGKFYGDIYMSQQGRLQGMEYLDFVLSEVHGLRIQELQQAKEQGKKIIGTFCVFVPEEITLAAGAVHVGLCSGADAGTEEAEKLVPRNTCALIKSFIGFKLARLCPFTESCDLVVGETTCDGKKKAYEAFAEHVPMHVMEVPNTKSDAARDLFKTEVLRYMQALQQLTGTAITPQALASGIRAVNAKRRALQRLSALRSADPAPISGRDALLINQVSFYDDPERFTHSINALCDQMEERIARKEGIAPAGTPRLLLSGCPMAVPNWKLPYIMESSGAVIVGEESCIGTRNTRDLVDESQETLDGMIDALVDRYMKIDCACFTPNTERLHNVTAMAQELKADGIVHYALKFCQPYAHEAFKIEKAAREKDIPVLSVETDYSMEDAEQLKTRVEAFVEMVRG	not soluble
MNLQAREGAPLNRYYDPYFACDAVKLLPGEYFASGEDLVIVTVLGSCVSVCLRDPLNGIAGMNHFMLPERGLGGDPASPSARYGSHAMELLINRMLALGASRERLQAKVFGGGSVLRQISAAIGQRNVEFTLDYLATERIPLLASDVLEAFPRKIYFFPRNGRVLVKSLVELKNDTVLQRERDYRRRIDRNADGGPIDLF	not soluble
MGAIKPLEDWLKNLGVKSDIRPNLLAGMEINDQICSVPLQTSNIGILERSKLFQAAGITEPPKTWEELRAVVKKSTIDKNGDHRPEQYGMLLTFGKGGWTVFSWLPFLFAAQGEIITDHYPSLSNPGAITALQFW	not soluble
MKLVRPQKISDQVLSVLEERIAEGVYAEGGKIPPERVLAEEFGVSRPSVRSALNVLVARQVLEARQGDGYYVSVKPQQDFLQSWQELLGKHSNWEQDVFDFSCHIEGCMAALAAERRTDADLKRIGFWLEKFEEACESGNLEHQSEADVSFHQTIADAAHNLLFSHLSGGLLKMLYRQTRSSLIYLNQEEDPRPKLMAQHRVLYEAISNRRPGEASEAAKAHLNYVASSILKDREYQSRNRHADTLAQNDLKRVQDWAV	soluble
MAHHHHHHMSVTASAAAAAAAAAASPRPPSSALYTERLFYAVLKQGNPSEARVEALAALALRHLPKSAETWAALRKALMEQSDLDGAPNRTLWYVLDALIKHAPHVFVPLVAPRLLEYTIQQLPWELAGHRGQTLLWFEALVLSWEKVLPQRLYSAVRQHAVQSRSGAELHDLLEAAENSVDDGTSASPADLQQLRDAWDAVQYMGEQEAGKSVFHARLIAAAVVVADEDGNSSLSPSPPVSGLYATPTGHNGRTAGAGTSGADIANTQQQQQQQEEDEYTPDFIEGAKPRELPKLDLPKLKRRREGRRRPREEDLGM	soluble
MSNMEPPPPMFPRSRIYHSYYSEEKTFSAPSANSQQGTQLPSKVYNKGLKDNDIEGLLSSLSIDELEDLNNDFDPDNSMLPPSQRCRDQTDKEPTGPYKRDNLLKFLEDKAKTEKDWEDVCPYTPGQKRGKVYDSDSGRNSEEPENGKMEMPIEIDLDDDEEELECALVTAPEKDLVDLAGILGMHNVLNQPQYYNALKGKTQDESTGTTFNGIMQSYVPRIVPDEPDNDTDVESCINRLREDDTDLKEVNINNMKRVSKERIRSLIEAACNSKHIEKFSLANTAISDSEARGLIELIETSPSLRVLNVESNFLTPELLARLLRSTLVTQSIVEFKADNQRQSVLGNQVEMDMMMAIEENESLLRVGISFASMEARHRVSEALERNYERVRLRRLGKDPNV	soluble
